Measurements taken from patent US20200002421A1 (AbbVie / Abbott, published 2020).
Positions count from the first letter of the chain named.

T1: hB7-H3 (ELISA antigen of Tables 17 and 20) (human, UniProt Q5ZPR3 29-466, limits assumed)
T1 sequence: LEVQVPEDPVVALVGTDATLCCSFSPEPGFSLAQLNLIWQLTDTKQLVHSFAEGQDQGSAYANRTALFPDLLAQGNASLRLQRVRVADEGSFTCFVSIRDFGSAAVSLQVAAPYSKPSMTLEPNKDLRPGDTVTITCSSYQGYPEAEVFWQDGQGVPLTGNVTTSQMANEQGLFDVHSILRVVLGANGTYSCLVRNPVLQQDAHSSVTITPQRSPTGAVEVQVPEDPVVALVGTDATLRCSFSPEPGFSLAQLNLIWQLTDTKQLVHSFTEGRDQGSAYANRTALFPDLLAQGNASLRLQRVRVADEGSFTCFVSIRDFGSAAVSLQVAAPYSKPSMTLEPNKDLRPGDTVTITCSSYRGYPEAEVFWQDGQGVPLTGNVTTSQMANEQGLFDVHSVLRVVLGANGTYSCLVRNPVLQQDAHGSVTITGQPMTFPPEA

T2: Human full length B7-H3 (human, UniProt Q5ZPR3 29-534)
T2 construct: on 3T12 transfectants, NCI-H1650 and other cells; also called huB7-H3; hu B7-H3
T2 sequence: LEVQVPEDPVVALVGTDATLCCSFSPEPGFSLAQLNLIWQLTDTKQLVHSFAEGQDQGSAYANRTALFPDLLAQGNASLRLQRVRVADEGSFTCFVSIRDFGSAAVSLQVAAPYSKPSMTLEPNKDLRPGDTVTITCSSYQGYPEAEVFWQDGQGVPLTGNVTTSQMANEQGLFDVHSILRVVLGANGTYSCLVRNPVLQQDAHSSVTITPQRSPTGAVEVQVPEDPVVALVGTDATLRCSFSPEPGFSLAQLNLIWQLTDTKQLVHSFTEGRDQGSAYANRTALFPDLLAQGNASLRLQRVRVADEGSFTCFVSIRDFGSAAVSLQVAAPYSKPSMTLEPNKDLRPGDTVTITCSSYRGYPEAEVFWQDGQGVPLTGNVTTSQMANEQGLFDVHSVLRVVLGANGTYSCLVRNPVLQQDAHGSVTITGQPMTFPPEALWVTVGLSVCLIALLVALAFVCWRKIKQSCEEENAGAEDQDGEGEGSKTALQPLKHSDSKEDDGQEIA

B1: huAb13v1 (antibody, human IgG1, kappa, L234A L235A, V domains shown)
VH: EVQLQESGPGLVKPSETLSLTCAVTGYSITSGYSWHWIRQFPGNGLEWMGYIHSSGSTNYNPSLKSRISISRDTSKNQFFLKLSSVTAADTAVYYCAGYDDYFEYWGQGTTVTVSS
VL: DIQMTQSPSSLSASVGDRVTITCKASQNVGFNVAWYQQKPGKSPKALIYSASYRYSGVPSRFSGSGSGTDFTLTISSLQPEDFAEYFCQQYNWYPFTFGQGTKLEIKR
notes: Ig gamma-1 mutant / kappa
B2: huAb13v5 (antibody, V domains shown)
VH: B1 VH
VL: DIQMTQSPSSLSASVGDRVTITCKASQNVGFNVAWYQQKPGKAPKLLIYSASYRYSGVPSRFSGSGSGTDFTLTISSLQPEDFATYYCQQYNWYPFTFGQGTKLEIK
B3: huAb13v6 (antibody, V domains shown)
VH: B1 VH
VL: B2 VL with Y87F
B4: huAb3v2 (antibody, V domains shown)
VH: EVQLVQSGAEVKKPGSSVKVSCKASGYTFSSYWMHWVRQAPGQGLEWIGLIHPDSGSTNYNEMFKNRATLTVDRSTSTAYMELSSLRSEDTAVYYCAGGGRLYFDYWGQGTTVTVSS
VL: DIVMTQSPLSLPVTPGEPASISCRSSQSLVHSNGDTYLRWYLQKPGQSPQLLIYKVSNRFSGVPDRFSGSGSGTDFTLKISRVEAEDVGVYYCSQSTHVPYTFGGGTKVEIK
B5: huAb3v2.5 (antibody, human IgG1, kappa, L234A L235A, V domains shown)
VH: B4 VH with D54E
VL: DIVMTQSPLSLPVTPGEPASISCRSSQSLVHSNRDTYLRWYLQKPGQSPQLLIYKVSNRFSGVPDRFSGSGSGTDFTLKISRVEAEDVGVYYCSQSTHVPYTFGGGTKVEIKR
notes: Ig gamma-1 mutant / kappa
B6: huAb3v2.2 (antibody, V domains shown)
VH: B4 VH with D54W
VL: B4 VL with G34R
B7: huAb3v2.6 (antibody, human IgG1, kappa, L234A L235A, V domains shown)
VH: B4 VH with D54E
VL: B5 VL with R34Q
notes: Ig gamma-1 mutant / kappa
B8: huAb3v2.3 (antibody, V domains shown)
VH: B4 VH with D54W
VL: B4 VL with G34Q
B9: huAb3v2.8 (antibody, V domains shown)
VH: B4 VH with D54I
VL: B4 VL with G34R
B10: huAb3v2.9 (antibody, V domains shown)
VH: B4 VH with D54I
VL: B4 VL with G34Q
B11: chAb13 (antibody, IgG1, V domains shown)
VH: DVQLQESGPDLVKPSQSLSLTCTVTGYSITSGYSWHWIRQFPGNKLEWMGYIHSSGSTNYNPSLKSRISINRDTSKNQFFLQLNSVTTEDTATYYCAGYDDYFEYWGQGTTLTVSS
VL: DIVMTQSQKFMSTSVGDRVSVTCKASQNVGFNVAWYQQKPGQSPKALIYSASYRYSGVPDRFTGSGSGTDFTLTISNVQSEDLAEYFCQQYNSYPFTFGSGTKLEIK
notes: chimeric, huIgG1/k

Columns and labels:
[1] = biological target: T3, Cynomolgous B7-H3 on cells (cynomolgus); assay: FACS
T3 construct: whole, on cells; also called cyno B7-H3; cyB7-H3
Description: (§1) Cells were harvested from flasks when approximately 80% confluent using Gibco® Cell Dissociation Buffer. Cells were washed once in PBS/1% FBS (FACS buffer) then resuspended at 2.5×10⁶ cells/mL in FACS buffer. 100 μL of cells/well were added to a round bottom 96-well plate. 10 μL of a 10× concentration of mAb/ADC (final concentrations are indicated the figures). Wells were washed twice with FACS buffer and resuspended in 50 μL of secondary Ab (AlexaFluor 488) diluted in FACS buffer. The plate was incubated at 4° C. for one hour and washed twice with FACS buffer. Cells were resuspended in 100 μL of PBS/1% formaldehyde and analyzed on a Becton Dickinson LSRII flow cytometer. Data was analyzed using WinList flow cytometry analysis software.
(§2) Nine huAb13 variants described in Examples 17 and 18 were generated and tested for binding to B7-H3 by FACS (according to methods described in Example 6).

[2] = biological target: T1, hB7-H3 (ELISA antigen of Tables 17 and …); assay: ELISA
[3] = biological target: T2, Human full length B7-H3; assay: FACS
Description: as §1, §2

[4] = biological target: T1, hB7-H3 (ELISA antigen of Tables 17 and …); assay: ELISA; remark: listed apart in the source
[5] = biological target: T3, Cynomolgous B7-H3 on cells; assay: FACS, 3T12 transfectants
[6] = biological target: T2, Human full length B7-H3; assay: FACS, 3T12 transfectants
[7] = biological target: T1, hB7-H3 (ELISA antigen of Tables 17 and …); assay: ELISA; ELISA, human B7-H3; no DAR given, so unconjugated

Binder | EC50 [1] | EC50 [2] | EC50 [3] | EC50 [4] | EC50 [5] | EC50 [6] | EC50 [7]
B1 | 10 nM | – | – | – | – | – | –
B2 | 10.6 nM | 0.19 nM | 5.21 nM | – | – | – | –
B3 | 12.9 nM | 0.14 nM | 5.83 nM | – | – | – | –
B4 | – | – | – | 0.44 nM | 2.87 nM | 5.11 nM | –
B5 | – | – | – | 0.13 nM | 4.86 nM | – | –
B6 | – | – | – | 0.1 nM | 3.68 nM | 5.29 nM | –
B7 | – | – | – | 0.09 nM | 3.31 nM | 5.64 nM | –
B8 | – | – | – | 0.11 nM | 4.03 nM | 6.5 nM | –
B9 | – | – | – | 0.14 nM | 3.01 nM | 3.94 nM | –
B10 | – | – | – | 0.16 nM | 4.64 nM | 6.16 nM | –
B11 | 18.4 nM | – | 6.27 nM | – | – | – | 0.26 nM
